From patent US20200270360A1 (ANGIEX, published 2020)
Changes are numbered by the printed parent chain. Each block holds one binder with its values, some of them ahead of it.

Experiments:
[1] = molecular target: T1, human TM4SF1 (transmembrane-4 L six family member-1) (human, UniProt P30408 1-202); assay: flow cytometry on MDA-MB-468 and HLMEC cells
T1 construct: also called hTM4SF1
T1 sequence: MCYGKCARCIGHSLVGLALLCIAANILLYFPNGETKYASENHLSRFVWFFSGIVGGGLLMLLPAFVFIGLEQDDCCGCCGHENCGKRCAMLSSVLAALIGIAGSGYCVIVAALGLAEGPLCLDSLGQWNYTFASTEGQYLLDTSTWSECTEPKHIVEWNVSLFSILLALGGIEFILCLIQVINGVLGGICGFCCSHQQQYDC

[2] = molecular target: T1, human TM4SF1 (transmembrane-4 L six …); assay: flow cytometry (MFI) on HUVEC

B1: anti-TM4SF1 antibody AGX-A01 (antibody, V domains shown)
VH: EVILVESGGGLVKPGGSLKLSCAASGFTFSSFAMSWVRQTPEKRLEWVATISSGSIYIYYTDGVKGRFTISRDNAKNTVHLQMSSLRSEDTAMYYCARRGIYYGYDGYAMDYWGQGTSVTVS
VL: AVVMTQTPLSLPVSLGDQASISCRSSQSLVHSNGNTYLHWYMQKPGQSPKVLIYKVSNRFSGVPDRFSGSGSGTDFTLKISRVEADDLGIYFCSQSTHIPLAFGAGTKLELK
notes: also called 8G4; AGX-01
concentration that saturates cell surface TM4SF1 binding [1]: 10000 ng/mL

B3: humanized mutated (hm) AGX-A07 H2L5 V1 (antibody, human IgG1, kappa, V domains shown)
VH: EVQLVQSGAEVKKPGASVKVSCKASGYTFTNYGVKWVRQAPGQGLEWMGWINTYTGNPIYAADFKGRVTMTTDTSTSTAYMELRSLRSDDTAVYYCVRFQYGDYRYFDVWGQGTLVTVSS
VL: EIVLTQSPATLSLSPGERATLSCRANSGISFINWYQQKPGQAPRLLIYGTANLASGIPARFSGSGSGRDFTLTISSLEPEDFAVYYCQQWSSNPLTFGGGTKVEIKR
notes: Full heavy and light chains
EC50 [2]: 1.58 nM

B4: humanized mutated (hm) AGX-A07 H2L5 V3 (antibody, human IgG1, kappa, V domains shown)
VH: B3 VH
VL: B3 VL with W90Y
notes: Full heavy and light chains
EC50 [2]: 4.19 nM

B5: humanized mutated (hm) AGX-A07 H2L5 V4 (antibody, human IgG1, kappa, V domains shown)
VH: B3 VH
VL: B3 VL with N26Q, W90Y
notes: Full heavy and light chains; also called hm AGX-A07 V4
EC50 [2]: 46.1 nM

Continued by falling EC50 [2], values first:

EC50 [2]: 3.03 nM
B2: humanized AGX-A01 (antibody, human IgG1, kappa, V domains shown)
VH: EVQLVESGGGLVKPGGSLRLSCAASGFTFSSFAMSWVRQAPGKGLEWVSTISSGSIYIYYTDGVKGRFTISRDNAKNSLYLQMNSLRAEDTAVYYCARRGIYYGYDGYAMDYWGQGTLVTVSS
VL: AIVLTQSPGTLSLSPGERATLSCRSSQSLVHSNGNTYLHWYMQKPGQAPRVLIYKVSNRFSGIPDRFSGSGSGTDFTLTISRLEPDDFAIYYCSQSTHIPLAFGQGTKLEIKR
notes: also called h AGX-A01 H1L10; h AGX-A01

EC50 [2]: 1.64 nM
B6: humanized mutated (hm) AGX-A07 H2L5 V2 (antibody, human IgG1, kappa, V domains shown)
VH: B3 VH
VL: B3 VL with N26Q
notes: Full heavy and light chains; also called AGX-A07 H2v1L5v2

EC50 [2]: 1.53 nM
B7: humanized AGX-A07 H2L5 (antibody, human IgG1, kappa, V domains shown)
VH: B3 VH with E1Q, G44D, Y80F
VL: B3 VL with V3I, S62G
notes: Full heavy and light chains; also called h AGX-A07 H2L5; hAGX-A07 H2L5
